B1: LINE1-mini (parent)
chain: GGCAGAGCUCAACACAGCGUGGCAAAGUGGCUGUGGCUAGACUGCC

The data set covers variants of B1. The data set can be described thus: self-cleavage, relative activity (ratio to wild type); higher = more cleavage; in vitro, sequencing; the parent is a self-cleaving ribozyme.
As for G44A C46G, the self-cleavage stood at 0.12.

With G44A C46U, the self-cleavage came to 0.16.

Turning to G44A C46A, the self-cleavage worked out at 0.08.

U43C G44U: the self-cleavage was determined as 0.09.

In the case of U43C G44A, the self-cleavage amounted to 0.11.

As for U43C G44C, the self-cleavage worked out at 0.08.

Consider A39C C46U, for which the self-cleavage worked out at 0.2.

For the variant A39C C46G, the self-cleavage came to 0.17.

On to A39C C46A, for which the self-cleavage turned out to be 0.13.

For A39G C46G, the self-cleavage was found to be 0.08.

Regarding A39G C46A, the self-cleavage was 0.14.

For the variant A39G C46U, the self-cleavage is 0.07.

As to A41C C46A, the self-cleavage was determined as 0.05.

Consider A41C C46U, for which the self-cleavage was found to be 0.04.

Take A41C C46G: the self-cleavage was 0.07.

In the case of A39C U43C, the self-cleavage worked out at 0.08.

On to A39C U43A, for which the self-cleavage stood at 0.04.

On to C42U G44C, for which the self-cleavage was 0.13.

As for C42U G44A, the self-cleavage worked out at 0.16.

Take C42U G44U: the self-cleavage is 0.1.

In the case of A41C U43A, the self-cleavage stood at 0.11.

With A41C U43G, the self-cleavage turned out to be 0.06.

As for A41C U43C, the self-cleavage is 0.08.

U38G G44U: the self-cleavage was 0.03.

As to C42A G44C, the self-cleavage was found to be 0.12.

As to C42A G44U, the self-cleavage worked out at 0.11.

In the case of C42A G44A, the self-cleavage came out at 0.25.

Consider A41C C42A, for which the self-cleavage amounted to 0.05.

Regarding A41C C42U, the self-cleavage came out at 0.05.

For A41C C42G, the self-cleavage was 0.07.

G40U A41U: the self-cleavage worked out at 0.37.

For G40U A41G, the self-cleavage turned out to be 0.09.

In the case of G40U A41C, the self-cleavage was 0.2.

Regarding A39C G40C, the self-cleavage stood at 0.07.

On to A39C G40A, for which the self-cleavage is 0.08.

In the case of A39C G40U, the self-cleavage worked out at 0.11.

With G44C C46A, the self-cleavage is 0.1.

As for G44C C46U, the self-cleavage was determined as 0.14.

Consider G44C C46G, for which the self-cleavage came to 0.08.

Take G40A U43G: the self-cleavage was determined as 0.09.

Turning to G40A U43A, the self-cleavage amounted to 0.06.

G40A U43C: the self-cleavage worked out at 0.08.

For G40A C45G, the self-cleavage was found to be 0.13.

Turning to G40A C45A, the self-cleavage stood at 0.12.

Consider G40A C45U, for which the self-cleavage was 0.16.

Regarding G40U G44A, the self-cleavage came out at 0.14.

Turning to G40U G44C, the self-cleavage was determined as 0.16.

For the variant G40U G44U, the self-cleavage came to 0.12.

In the case of A39C A41C, the self-cleavage came out at 0.62.

In the case of A39C A41G, the self-cleavage turned out to be 0.1.

For A39C A41U, the self-cleavage was 0.4.

As to A41G C46U, the self-cleavage is 0.16.

For A41G C46A, the self-cleavage was 0.22.

Take A41G C46G: the self-cleavage amounted to 0.08.

Regarding G40C C45U, the self-cleavage is 0.1.

Consider G40C C45A, for which the self-cleavage was determined as 0.09.

For G40C C45G, the self-cleavage worked out at 0.05.

Consider C46A, for which the self-cleavage was found to be 0.9.

On to C46U, for which the self-cleavage stood at 1.03.

C46G: the self-cleavage was found to be 0.99.

Consider G44U, for which the self-cleavage stood at 0.32.

For G44A, the self-cleavage was found to be 0.44.

G44C: the self-cleavage is 0.36.

For G40C, the self-cleavage was found to be 0.09.

On to G40U, for which the self-cleavage was 0.15.

Take G40A: the self-cleavage is 0.14.

Take C42U C46U: the self-cleavage is 0.24.

Turning to C42U C46G, the self-cleavage was found to be 0.19.

Consider C42U C46A, for which the self-cleavage was determined as 0.16.

As for C45A C46U, the self-cleavage was determined as 0.4.

With C45A C46G, the self-cleavage came out at 0.36.

With C45A C46A, the self-cleavage was 0.24.

As to A39G C42A, the self-cleavage amounted to 0.09.

For A39G C42G, the self-cleavage is 0.03.

Turning to A39G C42U, the self-cleavage was 0.12.

For the variant C42G G44A, the self-cleavage turned out to be 0.12.

C42G G44U: the self-cleavage was found to be 0.06.

Consider C42G G44C, for which the self-cleavage is 0.06.

With A39U C45G, the self-cleavage stood at 0.24.

For A39U C45A, the self-cleavage was 0.18.

Turning to A39U C45U, the self-cleavage came to 0.85.

In the case of A39U C46G, the self-cleavage came to 0.5.

On to A39U C46A, for which the self-cleavage was 0.75.

Consider A39U C46U, for which the self-cleavage turned out to be 0.46.

On to U43C C45A, for which the self-cleavage turned out to be 0.08.

With U43C C45G, the self-cleavage worked out at 0.1.

Consider U43C C45U, for which the self-cleavage worked out at 0.13.

Regarding A41U G44A, the self-cleavage came out at 0.31.

Consider A41U G44U, for which the self-cleavage amounted to 0.16.

On to A41U G44C, for which the self-cleavage is 0.49.

With A39U G40U, the self-cleavage was 0.14.

As for A39U G40A, the self-cleavage was found to be 0.17.

In the case of A39U G40C, the self-cleavage was found to be 0.18.

On to C45U C46A, for which the self-cleavage came out at 0.63.

As to C45U C46U, the self-cleavage was determined as 1.03.

C45U C46G: the self-cleavage is 0.39.

Take G40C G44U: the self-cleavage turned out to be 0.07.

With G40C G44A, the self-cleavage amounted to 0.12.

Take G40C G44C: the self-cleavage was 0.06.

For the variant U43C C46U, the self-cleavage was 0.1.

In the case of U43C C46G, the self-cleavage turned out to be 0.12.

On to U43C C46A, for which the self-cleavage is 0.11.

As for U43G C46A, the self-cleavage turned out to be 0.18.

Consider U43G C46G, for which the self-cleavage is 0.32.

For U43G C46U, the self-cleavage was found to be 0.28.

On to A39G A41G, for which the self-cleavage came to 0.01.

For the variant A39G A41U, the self-cleavage was determined as 0.07.

Regarding A39G A41C, the self-cleavage turned out to be 0.03.

For G40A C42A, the self-cleavage turned out to be 0.1.

Take G40A C42G: the self-cleavage turned out to be 0.09.

For G40A C42U, the self-cleavage stood at 0.09.

Consider G40U C42G, for which the self-cleavage came to 0.08.

As for G40U C42A, the self-cleavage is 0.09.

Regarding G40U C42U, the self-cleavage was 0.07.

C42A U43C: the self-cleavage was 0.09.

Consider C42A U43A, for which the self-cleavage was 0.15.

As to C42A U43G, the self-cleavage came out at 0.07.

In the case of A39C C45G, the self-cleavage is 0.12.

For the variant A39C C45A, the self-cleavage turned out to be 0.14.

As to A39C C45U, the self-cleavage was 0.24.

For the variant U43A C45U, the self-cleavage turned out to be 0.16.

Take U43A C45G: the self-cleavage worked out at 0.08.

Take U43A C45A: the self-cleavage was found to be 0.08.

Turning to C42G U43C, the self-cleavage stood at 0.03.

With C42G U43A, the self-cleavage came to 0.06.

Turning to C42G U43G, the self-cleavage was 0.06.

Consider G40A A41G, for which the self-cleavage was determined as 0.08.

As for G40A A41U, the self-cleavage was determined as 0.26.

As for G40A A41C, the self-cleavage came to 0.13.

Turning to A41U, the self-cleavage came to 0.67.

On to A41C, for which the self-cleavage was found to be 0.06.

Regarding A41G, the self-cleavage stood at 0.34.

Turning to A39G G44A, the self-cleavage worked out at 0.16.

A39G G44U: the self-cleavage was determined as 0.22.

As to A39G G44C, the self-cleavage came out at 0.09.

Turning to A39G U43G, the self-cleavage amounted to 0.12.

As to A39G U43C, the self-cleavage is 0.04.

For A39G U43A, the self-cleavage came out at 0.04.

For the variant G40C A41U, the self-cleavage was determined as 0.14.

The values are drawn from the RNAGym collection of RNA variant scans (doi:10.7554/elife.90254).
